According to US20250002594A1 (SHANGHAI EPIMAB BIOTHERAPEUTICS, published 2025):
Numbering of substitutions follows the chain as printed.

T1: recombinant human CD122 (human, UniProt P14784 27-239, limits assumed)
T1 construct: also called IL-2Rβ
T1 sequence (looked up): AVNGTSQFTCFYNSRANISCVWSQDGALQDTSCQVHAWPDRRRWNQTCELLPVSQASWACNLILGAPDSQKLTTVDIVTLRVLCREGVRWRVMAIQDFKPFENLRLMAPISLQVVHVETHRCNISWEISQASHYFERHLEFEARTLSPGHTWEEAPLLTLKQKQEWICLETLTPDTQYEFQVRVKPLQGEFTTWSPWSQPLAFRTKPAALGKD

T2: recombinant human CD132 (human, UniProt P31785 23-262, limits assumed)
T2 construct: also called IL-2Rγ
T2 sequence (looked up): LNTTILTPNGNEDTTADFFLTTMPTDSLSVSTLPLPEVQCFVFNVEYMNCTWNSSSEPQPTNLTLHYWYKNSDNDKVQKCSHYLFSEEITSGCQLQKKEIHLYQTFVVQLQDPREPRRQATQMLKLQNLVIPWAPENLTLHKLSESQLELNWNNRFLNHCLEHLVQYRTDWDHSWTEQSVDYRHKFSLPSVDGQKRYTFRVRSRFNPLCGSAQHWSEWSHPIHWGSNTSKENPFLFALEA

T3: CD122/CD132 complex on HEK-Blue IL-2 cells (UniProt P14784 27-551; P31785 23-369, limits assumed)
T3 sequence (looked up) 1: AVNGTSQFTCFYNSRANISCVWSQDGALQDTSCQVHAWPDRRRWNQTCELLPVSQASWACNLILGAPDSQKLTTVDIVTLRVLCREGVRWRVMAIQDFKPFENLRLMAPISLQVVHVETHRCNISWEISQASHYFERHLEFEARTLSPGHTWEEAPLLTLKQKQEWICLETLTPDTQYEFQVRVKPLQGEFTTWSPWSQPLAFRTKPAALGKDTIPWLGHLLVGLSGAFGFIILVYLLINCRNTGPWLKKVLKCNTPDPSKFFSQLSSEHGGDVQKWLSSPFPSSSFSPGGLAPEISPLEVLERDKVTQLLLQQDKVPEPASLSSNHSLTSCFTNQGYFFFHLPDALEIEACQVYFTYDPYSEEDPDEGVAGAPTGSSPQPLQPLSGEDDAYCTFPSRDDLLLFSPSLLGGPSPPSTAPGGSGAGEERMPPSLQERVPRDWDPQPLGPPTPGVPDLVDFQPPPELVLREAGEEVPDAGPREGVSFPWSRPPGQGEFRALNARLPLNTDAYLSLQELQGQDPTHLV
T3 sequence (looked up) 2: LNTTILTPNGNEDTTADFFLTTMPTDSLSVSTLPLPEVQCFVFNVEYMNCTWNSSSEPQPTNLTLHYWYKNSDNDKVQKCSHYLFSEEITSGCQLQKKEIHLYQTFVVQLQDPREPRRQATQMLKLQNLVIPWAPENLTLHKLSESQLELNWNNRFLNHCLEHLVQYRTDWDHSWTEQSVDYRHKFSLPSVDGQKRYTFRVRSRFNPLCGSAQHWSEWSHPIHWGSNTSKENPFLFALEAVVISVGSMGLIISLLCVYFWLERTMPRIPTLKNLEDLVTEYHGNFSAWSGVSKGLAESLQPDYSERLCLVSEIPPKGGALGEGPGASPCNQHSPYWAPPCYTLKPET

B1: huFIT2019-86b-17 (bispecific antibody, human IgG1, kappa, L234A L235A)
chain 1: not shown
chain 2: EVQLVQSGAEVKKPGASVKVSCKASGYTFTDYVISWVRQATGQGLEWMGEIYPGDAQTYYNEMFKGRVTMTRDTSISTAYMELSSLRSEDTAVYYCARGSYTYDNYAMDFWGQGTTVTVSSASTKGPSVFPLAPSSKSTSGGTAALGCLVKDYFPEPVTVSWNSGALTSGVHTFPAVLQSSGLYSLSSVVTVPSSSLGTQTYICNVNHKPSNTKVDKKVEPKSC
chain 3: not shown
B2: huFIT2019-86b-20 (bispecific antibody, human IgG1, kappa, L234A L235A)
chain 1: not shown
chain 2: B1 chain 2 with M70L, R72A
chain 3: not shown
B3: huFIT2019-86b-11 (bispecific antibody, human IgG1, kappa, L234A L235A)
chain 1: not shown
chain 2: B1 chain 2
chain 3: not shown
B4: huFIT2019-86b-15 (bispecific antibody, human IgG1, kappa, L234A L235A)
chain 1: not shown
chain 2: B1 chain 2 with R38K, M48I, V68A, M70L, R72A, T74K
chain 3: not shown
B5: huFIT2019-86b-34 (bispecific antibody, human IgG1, kappa, L234A L235A)
chain 1: not shown
chain 2: B1 chain 2 with A56G, Q57N
chain 3: not shown
B6: huFIT2019-86b-30 (bispecific antibody, human IgG1, kappa, L234A L235A)
chain 1: not shown
chain 2: B1 chain 2
chain 3: not shown
B7: huFIT2019-86b-22 (bispecific antibody, human IgG1, kappa, L234A L235A)
chain 1: not shown
chain 2: B1 chain 2 with T28R, T30S, R38K, M48I, V68A, M70L, R72A, T74K, Y95F
chain 3: not shown
B8: huFIT2019-86b-19 (bispecific antibody, human IgG1, kappa, L234A L235A)
chain 1: not shown
chain 2: B1 chain 2 with T28R, T30S, R72A
chain 3: not shown
B9: huFIT2019-86b-21 (bispecific antibody, human IgG1, kappa, L234A L235A)
chain 1: not shown
chain 2: B1 chain 2 with R38K, M48I, V68A, M70L, R72A, T74K
chain 3: not shown
B10: huFIT2019-86b-12 (bispecific antibody, human IgG1, kappa, L234A L235A)
chain 1: not shown
chain 2: B1 chain 2 with R72A
chain 3: not shown
B11: huFIT2019-86b-24 (bispecific antibody, human IgG1, kappa, L234A L235A)
chain 1: not shown
chain 2: B1 chain 2 with R72A
chain 3: not shown
B12: huFIT2019-86b-26 (bispecific antibody, human IgG1, kappa, L234A L235A)
chain 1: not shown
chain 2: B1 chain 2 with M70L, R72A
chain 3: not shown
B13: huFIT2019-86b-36 (bispecific antibody, human IgG1, kappa, L234A L235A)
chain 1: not shown
chain 2: B1 chain 2 with A56G, Q57N
chain 3: not shown
B14: huFIT2019-86b-23 (bispecific antibody, human IgG1, kappa, L234A L235A)
chain 1: not shown
chain 2: B1 chain 2
chain 3: not shown
B15: huFIT2019-86b-33 (bispecific antibody, human IgG1, kappa, L234A L235A)
chain 1: not shown
chain 2: B1 chain 2 with A56G, Q57N
chain 3: not shown
B16: huFIT2019-86b-28 (bispecific antibody, human IgG1, kappa, L234A L235A)
chain 1: not shown
chain 2: B1 chain 2 with T28R, T30S, R38K, M48I, V68A, M70L, R72A, T74K, Y95F
chain 3: not shown
B17: huFIT2019-86b-29 (bispecific antibody, human IgG1, kappa, L234A L235A)
chain 1: not shown
chain 2: B1 chain 2
chain 3: not shown
B18: huFIT2019-86b-31 (bispecific antibody, human IgG1, kappa, L234A L235A)
chain 1: not shown
chain 2: B1 chain 2
chain 3: not shown
B19: huFIT2019-86b-18 (bispecific antibody, human IgG1, kappa, L234A L235A)
chain 1: not shown
chain 2: B1 chain 2 with R72A
chain 3: not shown
B20: huFIT2019-86b-27 (bispecific antibody, human IgG1, kappa, L234A L235A)
chain 1: not shown
chain 2: B1 chain 2 with R38K, M48I, V68A, M70L, R72A, T74K
chain 3: not shown
B21: huFIT2019-86b-14 (bispecific antibody, human IgG1, kappa, L234A L235A)
chain 1: not shown
chain 2: B1 chain 2 with M70L, R72A
chain 3: not shown
B22: huFIT2019-86b-25 (bispecific antibody, human IgG1, kappa, L234A L235A)
chain 1: not shown
chain 2: B1 chain 2 with T28R, T30S, R72A
chain 3: not shown
B23: huFIT2019-86b-16 (bispecific antibody, human IgG1, kappa, L234A L235A)
chain 1: not shown
chain 2: B1 chain 2 with T28R, T30S, R38K, M48I, V68A, M70L, R72A, T74K, Y95F
chain 3: not shown
B24: huFIT2019-86b-13 (bispecific antibody, human IgG1, kappa, L234A L235A)
chain 1: not shown
chain 2: B1 chain 2 with T28R, T30S, R72A
chain 3: not shown
B25: huFIT2019-86b-32 (bispecific antibody, human IgG1, kappa, L234A L235A)
chain 1: not shown
chain 2: B1 chain 2 with A56G, Q57N
chain 3: not shown
notes: also called huFIT9-86b-32
B26: huFIT2019-86b-49 (bispecific antibody, human IgG1, kappa, L234A L235A)
chain 1: not shown
chain 2: B1 chain 2 with A56G, Q57N
chain 3: not shown
B27: huFIT2019-86b-50 (bispecific antibody, human IgG1, kappa, L234A L235A)
chain 1: not shown
chain 2: B1 chain 2 with A56G, Q57N
chain 3: not shown
B28: huFIT2019-86b-35 (bispecific antibody, human IgG1, kappa, L234A L235A)
chain 1: not shown
chain 2: B1 chain 2 with A56G, Q57N
chain 3: not shown
B29: huFIT2019-86b-46 (bispecific antibody, human IgG1, kappa, L234A L235A)
chain 1: not shown
chain 2: B1 chain 2 with Q57N
chain 3: not shown
B30: huFIT2019-86b-47 (bispecific antibody, human IgG1, kappa, L234A L235A)
chain 1: not shown
chain 2: B1 chain 2 with D55E, A56G, Q57N
chain 3: not shown
B31: huFIT2019-86b-48 (bispecific antibody, human IgG1, kappa, L234A L235A)
chain 1: not shown
chain 2: B1 chain 2 with A56G, Q57N
chain 3: not shown
B32: huFIT2019-86b-45 (bispecific antibody, human IgG1, kappa, L234A L235A)
chain 1: not shown
chain 2: B1 chain 2
chain 3: not shown

molecular target: T1, recombinant human CD122; assay: GCI (WAVEsystem)
Description: (§1) Binding affinity and kinetics constants of humanized CD122/CD132 FIT-Ig were determined using a label-free biosensor on WAVEsystem (Creoptix AG, Switzerland) by grating-coupled interferometry (GCI). Briefly, a PCP WAVEchip (Creoptix AG) was pre-immobilized with goat anti-human IgG Fc antibody to a density of 3830 pg/mm² by amine coupling, and used to capture humanized CD122/CD132 FIT-Ig generated from Example 3.2.1 to a density of ˜90 pg/mm², then exposed to recombinant human/cyno CD122 or CD132 serially diluted (3× dilutions from 200 nM to […] for human CD122, human CD132 and cyno CD132, respectively; and from 1000 nM to 1.37 nM for cyno CD122) in 1X HBS-EP+ buffer (Cytiva, Cat No. BR100669) by injection at 60 μL/min for 250s to assess association, followed by 1200s dissociation. After each round of association and dissociation, WAVEchip surface was regenerated by subject to pH 1.5 Glycine-HCl buffer injection at 60 μL/min for 120s. Sensorgrams were recorded at 25° C., the data were analyzed on WAVEcontrol (Creoptix AG) and double referenced by subtracting the signals from blank injections and the reference channel. A Langmuir 1:1 model was used for data fitting.

binding result	Binder
binds	B1
binds	B2
binds	B3
binds	B4
binds	B5
binds	B6
binds	B7
binds	B8
binds	B9
binds	B10
binds	B11
binds	B12
binds	B13
binds	B14
binds	B15
binds	B16
binds	B17
binds	B18
binds	B19
binds	B20
binds	B21
binds	B22
binds	B23
binds	B24

molecular target: T2, recombinant human CD132; assay: GCI (WAVEsystem)
Description: as §1

binding result	Binder
binds	B1
binds	B25
binds	B2
binds	B3
binds	B4
binds	B5
binds	B6
binds	B26
binds	B27
binds	B7
binds	B8
binds	B9
binds	B10
binds	B11
binds	B28
binds	B12

binding result	Binder
binds	B13
binds	B14
binds	B15
binds	B16
binds	B17
binds	B18
binds	B19
binds	B29
binds	B20
binds	B30
binds	B21
binds	B31
binds	B22
binds	B32
binds	B23
binds	B24

molecular target: T3, CD122/CD132 complex on HEK-Blue IL-2 …; assay: cell-based or functional assay

EC50 from SEAP reporter gene assay	Binder
0.163 nM	B25
0.216 nM	B26
0.286 nM	B27
0.163 nM	B28
0.119 nM	B29
0.121 nM	B30
0.168 nM	B31
0.106 nM	B32
